Experimental findings from patent publication US20260028403A1 (Zymeworks, published 2026) are described below.

Assay [1] deals with T1, CD28 on primary human T cells (human, UniProt P10747 19-220). Briefly: cell-based or functional assay.
Assay [2] concerns the target T1, CD28 on primary human T cells. The assay is described as follows: cell-based or functional assay. This is another data set of the same source.
In assay [3] the target is T2, Recombinant human/cynomolgus/rhesus macaque CD28 mouse IgG2a Fc fusion protein (Acro Biosystems) (human/cynomolgus/rhesus macaque, UniProt P10747 19-152).
T2 construct: bought; also called huCD28
Briefly: SPR, in-format anti-CD28 variants, huCD28. A general note: In SPR one partner is held on a chip, and binding of the other changes the refractive index at the surface.

B1: v37685 (trispecific antibody, human IgG1, kappa, L234A L235A)
heavy 1: not shown
heavy 2: QVQLVESGGGLVQPGGSLRLSCSVSGIDLSSNPMIWVRQAPGKGLQYIGIIDTDGSTYYADWAKGRFTISKDSTTVYLQINSPRAEDTAVYYCARRLHGSSNGYYDDLWGQGTLVTVSSGGGGSGGGGSGGGGSGGGGSDGQMTQSPSSVSASVGDRVTITCQASQSIYSYLSWYQQKPGQRPKLLIYKASTLASGVPSRFSGSGSGTDFTLTISSVQPEDFATYYCQQGYTVTNVDKNTFGGGTKVEIKAAEPKSSDKTHTCPPCPAPEAAGGPSVFLFPPKPKDTLMISRTPEVTCVVVSVSHEDPEVKFNWYVDGVEVHNAKTKPREEQYNSTYRVVSVLTVLHQDWLNGKEYKCKVSNKALPAPIEKTISKAKGQPREPQVYVLPPSRDELTKNQVSLLCLVKGFYPSDIAVEWESNGQPENNYLTWPPVLDSDGSFFLYSKLTVDKSRWQQGNVFSCSVMHEALHNHYTQKSLSLSPG
light: DIQMTQSPSSLSASVGDRVTITCRASESVEYYGTSLMQWYQQKPGKAPKLLIYAASNVDSGVPSRFSGSGSGTDFTLTISSLQPEDIATYYCQQSRKVPFTFGGGTKVEIKRTVAAPSVFIFPPSDEQLKSGTASVVCLLNNFYPREAKVQWKVDNALQSGNSQESVTEQDSKDSTYSLSSTLTLSKADYEKHKVYACEVTHQGLSSPVTKSFNRGEC
notes: also called v37638 format, CD28 VL V1035G
The Kd is the free concentration of one partner at which half of the binding sites on the other are occupied at equilibrium, for simple one-to-one binding. The koff is the first-order rate constant of dissociation. What is called kon is a measure of how fast the partners come together. As to B1, in assay [1], the “IL-2 maximum cytokine, T cells alone” value was 190 pg/mL; the “IL-2 maximum cytokine, T cells with SNU 601 cells” value is 3400 pg/mL; the “TNFa maximum cytokine, T cells alone” value is 25 pg/mL; the “TNFa maximum cytokine, T cells with SNU 601 cells” value is 409 pg/mL. Further, in assay [2], the “IC50, T cell-dependent cytotoxicity on SNU 601” value was 0.81 pM and the “Maximum Killing (%), SNU 601” value is 88.7%. In assay [3], the “Fold-change from WT” value worked out at 28.4 fold, the Kd worked out at 631 nM, the off-rate constant (koff) came out at 0.029 s⁻¹ and the kon is 67900 M⁻¹ s⁻¹.

B2: v37686 (trispecific antibody, human IgG1, kappa, L234A L235A)
heavy 1: not shown
heavy 2: QVQLVESGGGLVQPGGSLRLSCSVSGIDLSSNPMIWVRQAPGKGLQYIGIIDTDGSTYYADWAKGRFTISKDSTTVYLQINSPRAEDTAVYYCARRLHGSSNGYYDDLWGQGTLVTVSSGGGGSGGGGSGGGGSGGGGSDGQMTQSPSSVSASVGDRVTITCQASQSIYSYLSWYQQKPGQRPKLLIYKASTLASGVPSRFSGSGSGTDFTLTISSVQPEDFATYYCQQGYTVTNVDKNTFGGGTKVEIKAAEPKSSDKTHTCPPCPAPEAAGGPSVFLFPPKPKDTLMISRTPEVTCVVVSVSHEDPEVKFNWYVDGVEVHNAKTKPREEQYNSTYRVVSVLTVLHQDWLNGKEYKCKVSNKALPAPIEKTISKAKGQPREPQVYVLPPSRDELTKNQVSLLCLVKGFYPSDIAVEWESNGQPENNYLTWPPVLDSDGSFFLYSKLTVDKSRWQQGNVFSCSVMHEALHNHYTQKSLSLSPG
light: DIQMTQSPSSLSASVGDRVTITCRASESVEYYVTSLMQWYQQKPGKAPKLLIYAASNVESGVPSRFSGSGSGTDFTLTISSLQPEDIATYYCQQSRKVPFTFGGGTKVEIKRTVAAPSVFIFPPSDEQLKSGTASVVCLLNNFYPREAKVQWKVDNALQSGNSQESVTEQDSKDSTYSLSSTLTLSKADYEKHKVYACEVTHQGLSSPVTKSFNRGEC
notes: also called v37638 format, CD28 VL D1068E
In the case of B2, in assay [1], the “IL-2 maximum cytokine, T cells alone” value came to 388 pg/mL; the “IL-2 maximum cytokine, T cells with SNU 601 cells” value worked out at 4180 pg/mL; the “TNFa maximum cytokine, T cells alone” value worked out at 41 pg/mL; the “TNFa maximum cytokine, T cells with SNU 601 cells” value is 613 pg/mL. In assay [2], the “IC50, T cell-dependent cytotoxicity on SNU 601” value was found to be 0.09 pM and the “Maximum Killing (%), SNU 601” value was 88.5%. In assay [3], the “Fold-change from WT” value was 1.3 fold, the Kd turned out to be 28.1 nM, the dissociation rate constant (koff) was determined as 0.00252 s⁻¹ and the association rate constant (kon) came to 89300 M⁻¹ s⁻¹.
